Test results published in publication doi:10.1101/091256 (bioRxiv, 2016).

Target: T1, release factor RF2 (E. coli (K12 strain), UniProt P07012 1-365)
T1 sequence: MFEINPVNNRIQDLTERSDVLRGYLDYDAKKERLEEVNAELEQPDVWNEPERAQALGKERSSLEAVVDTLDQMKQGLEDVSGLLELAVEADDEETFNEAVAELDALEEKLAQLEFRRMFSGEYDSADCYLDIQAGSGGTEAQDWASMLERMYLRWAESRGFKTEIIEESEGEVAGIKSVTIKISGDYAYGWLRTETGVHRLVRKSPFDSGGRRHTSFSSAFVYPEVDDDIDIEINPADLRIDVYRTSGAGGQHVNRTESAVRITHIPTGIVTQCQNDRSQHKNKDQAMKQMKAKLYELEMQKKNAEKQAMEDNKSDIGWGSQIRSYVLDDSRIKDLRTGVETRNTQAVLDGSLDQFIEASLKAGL
Experiment: cryo-EM structure

B1: ArfA (alternative rescue factor A) (natural protein, E. coli, UniProt P36675 1-60, looked up)
chain: MSRYQHTKGQIKDNAIEALLHDPLFRQRVEKNKKGKGSYMRKGKHGNRGNWEASGKKVNH
- binding result: binds
